Measurements taken from patent US20220064286A1 (Genentech, published 2022).
Values belong to the binder of their own block, whether it stands above or below them.

What was measured:
[1] = biological target: T1, hTIGIT mutant E60A (human, UniProt Q495A1); assay: SPR (BIACORE), N=2
T1 sequence (TIGIT, looked up): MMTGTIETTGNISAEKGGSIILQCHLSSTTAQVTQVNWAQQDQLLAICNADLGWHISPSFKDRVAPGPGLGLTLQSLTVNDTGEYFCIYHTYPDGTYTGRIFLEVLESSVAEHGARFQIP

[2] = biological target: T2, hTIGIT mutant N70A (human, UniProt Q495A1); assay: SPR (BIACORE), N=2
T2 sequence (TIGIT, looked up): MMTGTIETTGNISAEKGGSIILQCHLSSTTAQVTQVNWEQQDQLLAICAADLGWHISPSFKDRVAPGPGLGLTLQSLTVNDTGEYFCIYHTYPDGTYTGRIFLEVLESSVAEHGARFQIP

[3] = biological target: T3, hTIGIT mutant L65A (human, UniProt Q495A1); assay: SPR (BIACORE), N=2
T3 sequence (TIGIT, looked up): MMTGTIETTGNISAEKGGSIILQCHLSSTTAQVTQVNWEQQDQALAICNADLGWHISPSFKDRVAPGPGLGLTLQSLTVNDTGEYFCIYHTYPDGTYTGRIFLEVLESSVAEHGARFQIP

[4] = biological target: T4, hTIGIT mutant Q53A (human, UniProt Q495A1); assay: SPR (BIACORE), N=2
T4 sequence (TIGIT, looked up): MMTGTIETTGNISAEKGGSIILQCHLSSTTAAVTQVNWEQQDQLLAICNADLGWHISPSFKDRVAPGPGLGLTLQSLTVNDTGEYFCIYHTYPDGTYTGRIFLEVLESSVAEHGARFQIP

[5] = biological target: T5, human TIGIT protein (human, UniProt Q495A1 22-141, limits assumed); assay: SPR (BIACORE), N=2
T5 construct: Recombinant protein (Genentech) used in ELISA screening and as SPR analyte; also called TIGIT antigen
T5 sequence: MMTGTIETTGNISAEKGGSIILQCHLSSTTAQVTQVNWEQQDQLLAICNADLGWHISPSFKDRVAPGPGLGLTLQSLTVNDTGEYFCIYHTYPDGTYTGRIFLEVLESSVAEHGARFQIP

[6] = biological target: T6, hTIGIT mutant T117A (human, UniProt Q495A1); assay: SPR (BIACORE), N=2
T6 sequence (TIGIT, looked up): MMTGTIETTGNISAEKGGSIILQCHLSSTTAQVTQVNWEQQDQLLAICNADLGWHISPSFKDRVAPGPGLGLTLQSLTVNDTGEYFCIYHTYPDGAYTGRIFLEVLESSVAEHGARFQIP

[7] = biological target: T7, hTIGIT mutant I68A (human, UniProt Q495A1); assay: SPR (BIACORE), N=2
T7 sequence (TIGIT, looked up): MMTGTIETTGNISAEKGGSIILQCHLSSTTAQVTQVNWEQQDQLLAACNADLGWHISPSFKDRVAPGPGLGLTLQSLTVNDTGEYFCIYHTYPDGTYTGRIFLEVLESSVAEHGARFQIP

[8] = biological target: T8, hTIGIT mutant Y113A (human, UniProt Q495A1); assay: SPR (BIACORE), N=2
T8 sequence (TIGIT, looked up): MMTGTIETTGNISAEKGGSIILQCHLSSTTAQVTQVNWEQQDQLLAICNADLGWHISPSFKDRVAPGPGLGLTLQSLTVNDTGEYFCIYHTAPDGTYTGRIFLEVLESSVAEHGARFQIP

[9] = biological target: T9, hTIGIT mutant Q56A (human, UniProt Q495A1); assay: SPR (BIACORE), N=2
T9 sequence (TIGIT, looked up): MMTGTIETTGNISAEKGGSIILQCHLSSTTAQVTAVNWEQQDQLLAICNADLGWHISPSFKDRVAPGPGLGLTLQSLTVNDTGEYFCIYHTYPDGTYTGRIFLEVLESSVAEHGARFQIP

[10] = biological target: T10, hTIGIT mutant H111A (human, UniProt Q495A1); assay: SPR (BIACORE), N=2
T10 sequence (TIGIT, looked up): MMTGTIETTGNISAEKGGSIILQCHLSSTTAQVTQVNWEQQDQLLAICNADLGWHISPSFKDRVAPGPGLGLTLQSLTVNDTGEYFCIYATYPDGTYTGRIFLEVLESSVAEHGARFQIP

[11] = biological target: T11, cynomolgus monkey (cyno) TIGIT protein (cynomolgus monkey, UniProt A0A7N9I9V4 89-209); assay: SPR, captured mAb
[12] = biological target: T5, human TIGIT protein; assay: SPR, captured mAb
[13] = biological target: T1, hTIGIT mutant E60A; assay: SPR (BIACORE) KD normalized to WT, N=2
[14] = biological target: T2, hTIGIT mutant N70A; assay: SPR (BIACORE) KD normalized to WT, N=2
[15] = biological target: T3, hTIGIT mutant L65A; assay: SPR (BIACORE) KD normalized to WT, N=2
[16] = biological target: T4, hTIGIT mutant Q53A; assay: SPR (BIACORE) KD normalized to WT, N=2
[17] = biological target: T5, human TIGIT protein; assay: SPR (BIACORE) KD normalized to WT, N=2
[18] = biological target: T6, hTIGIT mutant T117A; assay: SPR (BIACORE) KD normalized to WT, N=2
[19] = biological target: T7, hTIGIT mutant I68A; assay: SPR (BIACORE) KD normalized to WT, N=2
[20] = biological target: T8, hTIGIT mutant Y113A; assay: SPR (BIACORE) KD normalized to WT, N=2
[21] = biological target: T9, hTIGIT mutant Q56A; assay: SPR (BIACORE) KD normalized to WT, N=2
[22] = biological target: T10, hTIGIT mutant H111A; assay: SPR (BIACORE) KD normalized to WT, N=2
[23] = biological target: T11, cynomolgus monkey (cyno) TIGIT protein; assay: SPR, against h7E7.L1H1 (implied)
Description: (§1) Briefly, a series S CM5 biosensor chip was activated with N-ethyl-N′-(3-dimethylaminopropyl)-carbodiimide hydrochloride (EDC) and N-hydroxysuccinimide (NHS) reagents according to the supplier's (GE Healthcare Biosciences, Piscataway, N.J.) instructions, and a human antibody capture kit was applied to couple goat anti-human Fc IgGs in order to achieve approximately 10,000 response units (RU) on each flow cell, followed by blocking un-reacted groups with 1M ethanolamine.
(§2) (flow rate: 30 μl/min) with no regeneration between injections. The sensorgrams were recorded and evaluated by BIAcore™ T200 Evaluation Software (version 2.0) after subtraction of reference cell signal. Association rates (kₒₙ) and dissociation rates (koff) were calculated using a simple one-to-one Langmuir binding model. The equilibrium dissociation constant (KD) was calculated as the ratio koff/kₒₙ.
(§3) The first humanized versions, h6B2, L1H1, h10A5.L1H1, h7E7, L1H1, and h15C8.L1H1, which contain both rat CDRs and framework residues at Vernier positions, and the fully humanized versions, h6B2.L2H5, h10A5.L4H4, h7E7.L5H9, and h15C8.L5H9, which contain only rat CDRs were subject to BIAcore affinity measurement by comparison with original rat antibodies, rat6B2, rat10A5, rat7E7 and rat 15C8. For binding affinity determinations of TIGIT antibodies against human TIGIT, cynomolgus monkey TIGIT and human alanine-scanned TIGIT mutants by single-cycle kinetics, Surface Plasmon Resonance (SRP) measurement with a BIACORE™-T200 instrument was used, as described above.

[24] = biological target: T5, human TIGIT protein; assay: SPR, against h7E7.L1H1 (implied)
Description: as §1, §2, §3

T11 sequence (A0A7N9I9V4 entry or part of it): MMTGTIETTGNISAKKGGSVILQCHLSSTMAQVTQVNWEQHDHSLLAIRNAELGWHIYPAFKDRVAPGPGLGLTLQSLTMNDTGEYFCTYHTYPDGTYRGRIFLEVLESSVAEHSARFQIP

Kd [1]: 2.4 nM
Kd [2]: 2.8 nM
Kd [3]: 3 nM
Kd [4]: 0.9 nM
Kd [5]: 0.7 nM
Kd [6]: 1.1 nM
Kd [7]: 11.5 nM
Kd [8]: 2.5 nM
Kd [9]: 1.3 nM
Kd [10]: 1.3 nM
Kd [11]: 0.97 nM
koff [11]: 0.00124 s⁻¹
kon [11]: 1.28e+06 M⁻¹ s⁻¹
Kd [12]: 0.48 nM
koff [12]: 0.00222 s⁻¹
kon [12]: 4.65e+06 M⁻¹ s⁻¹
Binding affinity drop vs. WT [13]: 3.4 fold
Binding affinity drop vs. WT [14]: 4 fold
Binding affinity drop vs. WT [15]: 4.3 fold
Binding affinity drop vs. WT [16]: 1.3 fold
Binding affinity drop vs. WT [17]: 1 fold
Binding affinity drop vs. WT [18]: 1.6 fold
Binding affinity drop vs. WT [19]: 16.4 fold
Binding affinity drop vs. WT [20]: 3.6 fold
Binding affinity drop vs. WT [21]: 1.9 fold
Binding affinity drop vs. WT [22]: 1.9 fold
B1: h6B2.L2H5 (antibody, V domains shown)
VH: EVTLKESGPALVKPTQTLTLTCTFSGFSLSTYGMGVSWIRQPPGKALEWLASIWWNGNTYYNPSLKSRLTITKDTSKNQVVLTMTNMDPVDTATYYCAHTGGAVITWFAYWGQGTLVTVSS
VL: DIQMTQSPSSLSASVGDRVTITCKASQSVGKNIAWYQQKPGKAPKLLIYYASNRYTGVPSRFSGSGSGTDFTFTISSLQPEDIATYYCQHIYNSPYPFGQGTKVEIK
notes: Fully humanized version; FR/HVR pieces in order

fold drop in binding affinity [23]: > 100 fold
fold drop in binding affinity [24]: > 100 fold
B2: h7E7.L1H2 (antibody, V domains shown)
VH: EVQLVQSGAEVKKPGASVKVSCKASGYTFTEYSIYWVRQAPGQRLEWIGRIDPKNGRTYYVDKFKNRATLTADTSASTAYMELSSLRSEDTAVYFCTRIYGFYFDFWGQGTLVTVSS
VL: DIQLTQSPSFLSASVGDRVTITCKGSQNVNKYLVWYQQKPGKAPKLLIYNTDNLQSGIPSRFSGSGSGTEYTLTISSLQPEDFATYFCYQYNNGFTFGQGTKVEIK
notes: VH: I47W against h7E7.L1H1; FR/HVR pieces

Kd [11]: > 100 nM
Kd [12]: > 100 nM
fold drop in binding affinity [23]: > 100 fold
fold drop in binding affinity [24]: > 100 fold
B3: h7E7.L5H9 (antibody, V domains shown)
VH: EVQLVQSGAEVKKPGASVKVSCKASGYTFTEYSIYWVRQAPGQRLEWMGRIDPKNGRTYYVDKFKNRVTITRDTSASTAYMELSSLRSEDTAVYYCARIYGFYFDFWGQGTLVTVSS
VL: DIQLTQSPSFLSASVGDRVTITCKGSQNVNKYLVWYQQKPGKAPKLLIYNTDNLQSGVPSRFSGSGSGTEFTLTISSLQPEDFATYYCYQYNNGFTFGQGTKVEIK
notes: Fully humanized version; FR/HVR pieces
